In this assay the target is αv integrins on NIH3T3 cells (αvβ3 and αvβ5) (mouse) (UniProt P43406). Nature of the assay: cell-based or functional assay.
Chain of UniProt P43406 (P43406 whole entry): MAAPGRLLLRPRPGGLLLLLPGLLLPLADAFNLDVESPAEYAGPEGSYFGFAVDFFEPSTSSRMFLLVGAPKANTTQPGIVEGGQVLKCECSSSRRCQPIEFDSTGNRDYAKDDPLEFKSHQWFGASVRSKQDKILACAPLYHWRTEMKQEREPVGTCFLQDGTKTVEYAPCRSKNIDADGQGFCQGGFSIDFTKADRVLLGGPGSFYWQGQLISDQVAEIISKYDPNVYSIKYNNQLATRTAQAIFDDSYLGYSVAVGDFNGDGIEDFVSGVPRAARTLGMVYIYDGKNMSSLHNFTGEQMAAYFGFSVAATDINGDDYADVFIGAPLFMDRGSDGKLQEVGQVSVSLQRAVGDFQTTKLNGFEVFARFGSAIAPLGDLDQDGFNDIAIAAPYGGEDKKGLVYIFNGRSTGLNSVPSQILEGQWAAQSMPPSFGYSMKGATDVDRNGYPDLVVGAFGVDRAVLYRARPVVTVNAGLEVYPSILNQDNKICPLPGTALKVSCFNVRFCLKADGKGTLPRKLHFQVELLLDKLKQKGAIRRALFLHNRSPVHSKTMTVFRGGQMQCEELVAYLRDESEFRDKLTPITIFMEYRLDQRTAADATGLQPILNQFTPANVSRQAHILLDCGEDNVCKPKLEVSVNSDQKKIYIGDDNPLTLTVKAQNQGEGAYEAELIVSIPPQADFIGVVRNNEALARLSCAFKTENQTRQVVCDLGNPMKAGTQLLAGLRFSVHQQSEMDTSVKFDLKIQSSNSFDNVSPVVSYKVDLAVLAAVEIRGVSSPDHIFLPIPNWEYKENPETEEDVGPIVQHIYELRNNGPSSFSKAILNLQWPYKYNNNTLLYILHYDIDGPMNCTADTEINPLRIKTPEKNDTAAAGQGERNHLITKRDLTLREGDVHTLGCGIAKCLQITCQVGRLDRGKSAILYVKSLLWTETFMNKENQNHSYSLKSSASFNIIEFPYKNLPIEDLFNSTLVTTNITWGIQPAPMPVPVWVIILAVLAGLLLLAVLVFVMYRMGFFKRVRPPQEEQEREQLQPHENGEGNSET

GRGDSP [RGD peptide (GRGDSP)] had a reduction of transduction of Ad5luc-L1 in NIH3T3 cells compared to control RGE peptide of 40 % reduction, a reduction of transduction of Ad5luc-L16 in NIH3T3 cells compared to control RGE peptide of 60 % reduction and a reduction of transduction of Ad5luc-L33 in NIH3T3 cells compared to control RGE peptide of 61 % reduction.
